Each block holds one binder with its values, some of them ahead of it. *1 amine or outer side, *2 acyl side, *3 side chain or, on linkers, in order; H or OH if unused. Bridges are numbered along the chain shown (N, C = ends). Where no end group is shown, it is not given here. [ ]: non-standard residue; d: D form. dStyrA = (R)-styryl-alanine, (D)-StyrA, O=C([C@@H](C/C=C/c1ccccc1)N[*:1])[*:2]; S6H = (2S)-2-aminooct-7-enoic acid, C=CCCCC[C@H](N[*:1])C(=O)[*:2]; S7H3 = (2S)-2-aminononanoic acid, CCCCCCC[C@H](N[*:1])C(=O)[*:2]; Leu(5,5,5,5',5',5'-F6) = N[C@@H](CC(C(F)(F)F)C(F)(F)F)C(=O)O; dNle(6-ylidene) = O=C([C@@H](CCCC=[*:3])N[*:1])[*:2]; Ala(E-styryl) = N[C@@H](C/C=C/c1ccccc1)C(=O)O; Gly(oct-7-en-1-yl) = C=CCCCCCC[C@H](N)C(=O)O; dGly(6-heptenyl) = C=CCCCCC[C@@H](N)C(=O)O; Ala(5-hexenyl) = C=CCCCCC[C@H](N)C(=O)O; Gla = N[C@@H](CC(C(=O)O)C(=O)O)C(=O)O; S8H3 = not defined here; R5H = not defined here; Aib = CC(C)(N)C(=O)O
Target: ATP-binding cassette transporter A1 (ABCA1) (mouse, UniProt P41233 1-2261)
Test: cell-based or functional assay

ATP-binding cassette transporter A1 (ABCA1), sequence (P41233 whole entry): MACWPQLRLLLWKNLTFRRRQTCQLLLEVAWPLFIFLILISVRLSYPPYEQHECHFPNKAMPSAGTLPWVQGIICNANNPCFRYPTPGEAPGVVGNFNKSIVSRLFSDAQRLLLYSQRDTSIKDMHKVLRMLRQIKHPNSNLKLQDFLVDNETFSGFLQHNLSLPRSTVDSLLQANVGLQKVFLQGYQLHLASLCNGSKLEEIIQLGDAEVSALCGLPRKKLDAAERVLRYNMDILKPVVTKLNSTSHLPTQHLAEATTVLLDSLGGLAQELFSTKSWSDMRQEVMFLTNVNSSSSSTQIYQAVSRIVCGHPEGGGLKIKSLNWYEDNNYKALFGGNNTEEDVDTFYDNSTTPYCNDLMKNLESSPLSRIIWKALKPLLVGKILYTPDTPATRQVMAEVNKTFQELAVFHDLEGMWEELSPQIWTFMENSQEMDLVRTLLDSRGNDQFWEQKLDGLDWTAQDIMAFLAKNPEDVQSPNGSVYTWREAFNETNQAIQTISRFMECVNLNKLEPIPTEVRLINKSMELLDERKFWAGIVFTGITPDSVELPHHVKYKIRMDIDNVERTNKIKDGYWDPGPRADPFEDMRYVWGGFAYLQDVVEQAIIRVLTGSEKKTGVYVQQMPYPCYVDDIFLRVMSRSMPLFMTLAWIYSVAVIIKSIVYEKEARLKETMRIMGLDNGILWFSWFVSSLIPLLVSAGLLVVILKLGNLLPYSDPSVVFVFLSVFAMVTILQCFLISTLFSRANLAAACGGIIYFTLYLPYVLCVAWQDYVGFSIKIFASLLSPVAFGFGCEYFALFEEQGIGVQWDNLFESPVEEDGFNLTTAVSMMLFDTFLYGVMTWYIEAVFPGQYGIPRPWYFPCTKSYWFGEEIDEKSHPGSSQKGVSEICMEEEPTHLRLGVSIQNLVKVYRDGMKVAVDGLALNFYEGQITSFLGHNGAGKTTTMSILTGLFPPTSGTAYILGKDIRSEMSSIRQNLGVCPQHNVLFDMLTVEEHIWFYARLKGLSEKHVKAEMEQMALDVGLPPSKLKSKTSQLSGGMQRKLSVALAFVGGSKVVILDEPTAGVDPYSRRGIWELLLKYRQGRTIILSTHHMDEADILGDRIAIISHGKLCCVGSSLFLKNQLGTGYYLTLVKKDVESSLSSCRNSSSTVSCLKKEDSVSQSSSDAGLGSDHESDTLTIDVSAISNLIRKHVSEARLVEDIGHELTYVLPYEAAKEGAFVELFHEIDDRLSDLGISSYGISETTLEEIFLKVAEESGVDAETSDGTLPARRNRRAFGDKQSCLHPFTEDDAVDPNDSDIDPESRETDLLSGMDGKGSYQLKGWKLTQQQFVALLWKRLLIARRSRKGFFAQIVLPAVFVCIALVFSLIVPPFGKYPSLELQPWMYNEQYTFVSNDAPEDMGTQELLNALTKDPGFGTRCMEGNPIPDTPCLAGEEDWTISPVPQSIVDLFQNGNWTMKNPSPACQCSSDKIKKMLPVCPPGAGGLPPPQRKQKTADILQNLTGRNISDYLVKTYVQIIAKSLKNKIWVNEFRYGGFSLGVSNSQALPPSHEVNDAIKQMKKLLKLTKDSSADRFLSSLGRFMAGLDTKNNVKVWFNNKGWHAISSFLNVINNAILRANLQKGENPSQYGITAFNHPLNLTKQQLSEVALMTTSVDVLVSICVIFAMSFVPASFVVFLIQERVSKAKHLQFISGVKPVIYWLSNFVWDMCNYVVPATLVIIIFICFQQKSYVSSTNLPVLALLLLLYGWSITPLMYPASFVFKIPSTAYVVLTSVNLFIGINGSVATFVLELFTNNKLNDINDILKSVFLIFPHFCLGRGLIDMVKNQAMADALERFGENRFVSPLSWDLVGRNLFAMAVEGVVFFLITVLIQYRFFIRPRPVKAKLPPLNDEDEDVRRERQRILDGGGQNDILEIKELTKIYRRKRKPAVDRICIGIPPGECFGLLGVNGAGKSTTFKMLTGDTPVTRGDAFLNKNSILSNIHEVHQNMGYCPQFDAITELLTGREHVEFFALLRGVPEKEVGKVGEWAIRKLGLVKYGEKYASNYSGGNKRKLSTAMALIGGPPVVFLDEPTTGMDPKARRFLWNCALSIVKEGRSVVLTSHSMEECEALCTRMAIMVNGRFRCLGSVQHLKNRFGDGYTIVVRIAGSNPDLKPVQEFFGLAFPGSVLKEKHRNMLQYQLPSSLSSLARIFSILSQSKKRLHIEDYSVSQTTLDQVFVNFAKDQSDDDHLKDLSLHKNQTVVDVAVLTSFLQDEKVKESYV

- ABCA1-dependent cholesterol efflux EC50: 400 nM
B1: CONS[S8H^6,13] (peptide)
peptide: Ac-PVLDE[Gly(oct-7-en-1-yl)]REKLNE[Gly(oct-7-en-1-yl)]LEALKQKLK

- ABCA1-dependent cholesterol efflux EC50: 200 nM
B2: CON[(S)STYRA^6, S7H^13] (peptide)
peptide: Ac-PVLDE[Ala(E-styryl)]REKLNE[Ala(5-hexenyl)]LEALKQKLK

- ABCA1-dependent cholesterol efflux, % at 100 uM: 1.4%
B3: CONS[S7H^10] (peptide)
peptide: Ac-PVLDEFREK[Ala(5-hexenyl)]NEELEALKQKLK

- ABCA1-dependent cholesterol efflux EC50: 300 nM
B4: CONS[S7H3^6,13] (peptide)
peptide: Ac-PVLDE[S7H3]REKLNE[S7H3]LEALKQKLK
modifications: not fully specified (C-terminus); printed as PVLDES7H3REKLNES7H3LEALKQKLK

- ABCA1-dependent cholesterol efflux EC50: 300 nM
B5: CONS[S8H3^13] (peptide)
peptide: Ac-PVLDEFREKLNE[S8H3]LEALKQKLK
modifications: reading uncertain

- ABCA1-dependent cholesterol efflux, % at 100 uM: 1%
B6: CONS[S6H^2] (peptide)
peptide: Ac-P[S6H]LDEFREKLNEELEALKQKLK
modifications: not fully specified (C-terminus)

- ABCA1-dependent cholesterol efflux EC50: 200 nM
B7: CONS[S7H^6,13,20] (peptide)
peptide: Ac-PVLDE[Ala(5-hexenyl)]REKLNE[Ala(5-hexenyl)]LEALKQ[Ala(5-hexenyl)]LK

- ABCA1-dependent cholesterol efflux EC50: 142000 nM
B8: GLA8/ALA13 (peptide)
peptide: Ac-PVLDEFR[Gla]KLNEALEALKQKLK
modifications: not fully specified (C-terminus)

- ABCA1-dependent cholesterol efflux EC50: 600 nM
B9: CONS[S8H^13] (peptide)
peptide: Ac-PVLDEFREKLNE[Gly(oct-7-en-1-yl)]LEALKQKLK

- ABCA1-dependent cholesterol efflux EC50: 300 nM
B10: CONS[S7H^2,13] (peptide)
peptide: Ac-P[Ala(5-hexenyl)]LDEFREKLNE[Ala(5-hexenyl)]LEALKQKLK

- ABCA1-dependent cholesterol efflux EC50: 300 nM
B11: CONS[E^4, Q^11, S8H^13] (peptide)
peptide: Ac-PVLEEFREKLQE[Gly(oct-7-en-1-yl)]LEALKQKLK
modifications: not fully specified (C-terminus)

- ABCA1-dependent cholesterol efflux EC50: 600 nM
B12: CONS[S7H3^13] (peptide)
peptide: Ac-PVLDEFREKLNE[S7H3]LEALKQKLK
modifications: not fully specified (C-terminus); printed as PVLDEFREKLNES7H3LEALKQKLK

- ABCA1-dependent cholesterol efflux EC50: 100 nM
B13: CONS[R7H^6, S7H^13,20] (peptide)
peptide: Ac-PVLDE[dGly(6-heptenyl)]REKLNE[Ala(5-hexenyl)]LEALKQ[Ala(5-hexenyl)]LK
modifications: not fully specified (C-terminus); printed as PVLDER7HREKLNES7HLEALKQS7HLK

- ABCA1-dependent cholesterol efflux EC50: 1300 nM
B14: CONS[K^7, S7H^13] (peptide)
peptide: Ac-PVLDEFKEKLNE[Ala(5-hexenyl)]LEALKQKLK
modifications: not fully specified (C-terminus)

- ABCA1-dependent cholesterol efflux, % at 100 uM: 6.2%
B15: CONS[R5H^13] (peptide)
peptide: Ac-PVLDEFREKLNE[dNle(6-ylidene)]LEALKQKLK
modifications: not fully specified (C-terminus)

- ABCA1-dependent cholesterol efflux, % at 100 uM: 6.3%
B16: CONS[R7H^2] (peptide)
peptide: Ac-P[dGly(6-heptenyl)]LDEFREKLNEELEALKQKLK
modifications: not fully specified (C-terminus)

- ABCA1-dependent cholesterol efflux EC50: 1100 nM
B17: CONS[HF-LEU^,13] (peptide)
peptide: Ac-PVLDEFREKLNE[Leu(5,5,5,5',5',5'-F6)]LEALKQKLK
modifications: not fully specified (C-terminus)

- ABCA1-dependent cholesterol efflux EC50: 22000 nM
B18: CONS[(R)STYRA^13] (peptide)
peptide: Ac-PVLDEFREKLNE[dStyrA]LEALKQKLK
modifications: not fully specified (C-terminus)

- ABCA1-dependent cholesterol efflux EC50: 600 nM
B19: CONS[S7H^13,20] (peptide)
peptide: Ac-PVLDEFREKLNE[Ala(5-hexenyl)]LEALKQ[Ala(5-hexenyl)]LK

- ABCA1-dependent cholesterol efflux, % at 100 uM: 6%
B20: AIB13 (peptide)
peptide: Ac-PVLDEFREKLNE[Aib]LEALKQKLK
modifications: not fully specified (C-terminus)

- ABCA1-dependent cholesterol efflux EC50: 700 nM
B21: CONS[S7H^13, GLA^15] (peptide)
peptide: Ac-PVLDEFREKLNE[Ala(5-hexenyl)]L[Gla]ALKQKLK

- ABCA1-dependent cholesterol efflux EC50: 900 nM
B22: CONS[GLA^8, S7H^13] (peptide)
peptide: Ac-PVLDEFR[Gla]KLNE[Ala(5-hexenyl)]LEALKQKLK
modifications: not fully specified (C-terminus)

- ABCA1-dependent cholesterol efflux, % at 100 uM: 1.4%
B23: CONS[S7H^9] (peptide)
peptide: Ac-PVLDEFRE[Ala(5-hexenyl)]LNEELEALKQKLK

- ABCA1-dependent cholesterol efflux EC50: 234000 nM
B24: GLA15/ALA13 (peptide)
peptide: Ac-PVLDEFREKLNEAL[Gla]ALKQKLK
modifications: not fully specified (C-terminus)

- ABCA1-dependent cholesterol efflux EC50: 1400 nM
B25: CONS[S6H^13] (peptide)
peptide: Ac-PVLDEFREKLNE[S6H]LEALKQKLK
modifications: not fully specified (C-terminus)

- ABCA1-dependent cholesterol efflux EC50: 1000 nM
B26: CONS[(S)STYRA^13] (peptide)
peptide: Ac-PVLDEFREKLNE[Ala(E-styryl)]LEALKQKLK
modifications: not fully specified (C-terminus)

- ABCA1-dependent cholesterol efflux EC50: 200 nM
B27: CONS[R7H^6, S7H^2,13] (peptide)
peptide: Ac-P[Ala(5-hexenyl)]LDE[dGly(6-heptenyl)]REKLNE[Ala(5-hexenyl)]LEALKQKLK
modifications: not fully specified (C-terminus)

- ABCA1-dependent cholesterol efflux, % at 100 uM: 4%
B28: CONS[S7H^6] (peptide)
peptide: Ac-PVLDE[Ala(5-hexenyl)]REKLNEELEALKQKLK

- ABCA1-dependent cholesterol efflux EC50: 300 nM
B29: CONS[S7H^6,13] (peptide)
peptide: Ac-PVLDE[Ala(5-hexenyl)]REKLNE[Ala(5-hexenyl)]LEALKQKLK

- ABCA1-dependent cholesterol efflux EC50: 10000 nM
B30: R5H [K9-E13]R5H CLOSED RING (peptide)
peptide: Ac-PVLDEFRE[R5H]LNE[R5H]LEALKQKLK
modifications: staple 9-13; reading uncertain

- ABCA1-dependent cholesterol efflux EC50: 600 nM
B31: CONS[S8H3^6,13] (peptide)
peptide: Ac-PVLDE[S8H3]REKLNE[S8H3]LEALKQKLK
modifications: reading uncertain

- ABCA1-dependent cholesterol efflux EC50: 100 nM
B32: CONS[S7H^2,6,13] (peptide)
peptide: Ac-P[Ala(5-hexenyl)]LDE[Ala(5-hexenyl)]REKLNE[Ala(5-hexenyl)]LEALKQKLK

- ABCA1-dependent cholesterol efflux EC50: 3200 nM
B33: CONS[S7H^2,13,20] (peptide)
peptide: Ac-P[Ala(5-hexenyl)]LDEFREKLNE[Ala(5-hexenyl)]LEALKQ[Ala(5-hexenyl)]LK

- ABCA1-dependent cholesterol efflux EC50: 700 nM
B34: CONS[E^4, S7H^6,13, Q^11] (peptide)
peptide: Ac-PVLEE[Ala(5-hexenyl)]REKLQE[Ala(5-hexenyl)]LEALKQKLK
modifications: not fully specified (C-terminus)

- ABCA1-dependent cholesterol efflux EC50: 41000 nM
B35: GLA15/AIB13 (peptide)
peptide: Ac-PVLDEFREKLNE[Aib]L[Gla]ALKQKLK
modifications: not fully specified (C-terminus)

- ABCA1-dependent cholesterol efflux EC50: 236000 nM
B36: CONS[S6H^20] (peptide)
peptide: Ac-PVLDEFREKLNEELEALKQ[S6H]LK
modifications: not fully specified (C-terminus); printed as PVLDEFREKLNEELEALKQS6HLK

- ABCA1-dependent cholesterol efflux EC50: 44000 nM
B37: GLA8/AIB13 (peptide)
peptide: Ac-PVLDEFR[Gla]KLNE[Aib]LEALKQKLK
modifications: not fully specified (C-terminus)

- ABCA1-dependent cholesterol efflux EC50: 200 nM
B38: CONS[E^4, Q^11, S8H3^13,] (peptide)
peptide: Ac-PVLEEFREKLQE[S8H3]LEALKQKLK
modifications: not fully specified (C-terminus); printed as PVLEEFREKLQES8H3LEALKQKLK; reading uncertain; also: calls X13 alkenyl side chain-substituted amino acid

- ABCA1-dependent cholesterol efflux EC50: 7200 nM
B39: CONS[R7H^13] (peptide)
peptide: Ac-PVLDEFREKLNE[dGly(6-heptenyl)]LEALKQKLK
modifications: not fully specified (C-terminus)

- ABCA1-dependent cholesterol efflux, % at 30 uM: < 2%
B40: R5H [E13-L17]R5H CLOSED RING (peptide)
peptide: Ac-PVLDEFREKLNE[R5H]LEA[R5H]KQKLK
modifications: staple 13-17; reading uncertain

- ABCA1-dependent cholesterol efflux EC50: 500 nM
B41: CONS[GLA^15, S7H^6,13,20] (peptide)
peptide: PVLDEXREKLNEXLXALKQXLK
modifications: not fully specified; N-terminal acetyl (Ac-Pro); S7H at 6, 13 and 20; Gla at 15

- ABCA1-dependent cholesterol efflux, % at 100 uM: 1.4%
B42: CONS[R7H^20] (peptide)
peptide: Ac-PVLDEFREKLNEELEALKQ[dGly(6-heptenyl)]LK
modifications: not fully specified (C-terminus); printed as PVLDEFREKLNEELEALKQR7HLK

- ABCA1-dependent cholesterol efflux, % at 100 uM: 1%
B43: CONS[S7H^17] (peptide)
peptide: Ac-PVLDEFREKLNEELEA[Ala(5-hexenyl)]KQKLK

- ABCA1-dependent cholesterol efflux EC50: 7700 nM
B44: CONS[GLA^15, S7H^2,13,20] (peptide)
peptide: PXLDEFREKLNEXLXALKQXLK
modifications: not fully specified; N-terminal acetyl (Ac-Pro); S7H at 2, 13 and 20; Gla at 15

Reference: patent publication US20110046056A1, “APOA-1 PEPTIDE MIMETICS” (priority 2007, published 2011)
